Paper PMC9225179, “RNA Polymerase II Transcription in Pneumocystis: TFIIB from Pneumocystis carinii Can Replace the Transcriptional Functions of Fission Yeast Schizosaccharomyces pombe TFIIB In Vivo and In Vitro” (International Journal of Molecular Sciences, 2022)

Biological target: T1, Schizosaccharomyces pombe TFIIB (S. pombe, UniProt O13749 1-340)
T1 construct: General transcription factor TFIIB of S. pombe (sua7), 340 aa as printed; also called SpIIB; fission yeast TFIIB
T1 sequence (looked up): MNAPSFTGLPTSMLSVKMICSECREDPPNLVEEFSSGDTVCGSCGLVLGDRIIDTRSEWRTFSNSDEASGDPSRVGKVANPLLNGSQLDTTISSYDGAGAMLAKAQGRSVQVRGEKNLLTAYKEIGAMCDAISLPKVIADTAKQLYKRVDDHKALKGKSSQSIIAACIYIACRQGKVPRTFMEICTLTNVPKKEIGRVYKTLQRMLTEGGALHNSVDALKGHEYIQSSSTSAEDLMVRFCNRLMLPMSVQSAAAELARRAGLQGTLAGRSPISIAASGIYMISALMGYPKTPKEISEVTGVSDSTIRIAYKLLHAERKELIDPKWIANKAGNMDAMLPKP
Experiment: native gel or EMSA; TBP and TFIIB (20 ng each) on 32P-labelled Ad-MLP TATA box probe; 20 mM HEPES pH 7.9, 50 mM KCl, 5 mM MgCl2, 5% glycerol; 15 min at 30 °C; 5% polyacrylamide gel at 4 °C
Conditions: both partners purified

B1: Schizosaccharomyces pombe TATA-binding protein (natural protein, S. pombe, UniProt P17871 1-231, looked up)
chain: MDFALPTTASQASAFMNNSSLTFPVLPNANNEATNETADSGDAEVSKNEGVSGIVPTLQNIVATVNLDCRLDLKTIALHARNAEYNPKRFAAVIMRIREPKSTALIFASGKMVVLGGKSEDDSKLASRKYARIIQKLGFNAKFTDFKIQNIVGSCDVKFPIRLEGLAYSHGTFSSYEPELFPGLIYRMVKPKVVLLIFVSGKIVLTGAKVREEIYQAFEAIYPVLSEFRKH
notes: also called TBP; fission yeast TBP
B1: binds.
